According to PMC9750918, “Diprenylated cyclodipeptide production by changing the prenylation sequence of the nature’s synthetic machinery” (Applied Microbiology and Biotechnology, 2022):

T1: 7-DMATS (Aspergillus fumigatus, UniProt Q4WYG3)
T1 construct: gene etpPT; 7-DMATS-His6 (C-terminal tag kept), plasmid pLW40, expressed in E. coli, Ni-NTA purified
T1 sequence (Q4WYG3 1-472): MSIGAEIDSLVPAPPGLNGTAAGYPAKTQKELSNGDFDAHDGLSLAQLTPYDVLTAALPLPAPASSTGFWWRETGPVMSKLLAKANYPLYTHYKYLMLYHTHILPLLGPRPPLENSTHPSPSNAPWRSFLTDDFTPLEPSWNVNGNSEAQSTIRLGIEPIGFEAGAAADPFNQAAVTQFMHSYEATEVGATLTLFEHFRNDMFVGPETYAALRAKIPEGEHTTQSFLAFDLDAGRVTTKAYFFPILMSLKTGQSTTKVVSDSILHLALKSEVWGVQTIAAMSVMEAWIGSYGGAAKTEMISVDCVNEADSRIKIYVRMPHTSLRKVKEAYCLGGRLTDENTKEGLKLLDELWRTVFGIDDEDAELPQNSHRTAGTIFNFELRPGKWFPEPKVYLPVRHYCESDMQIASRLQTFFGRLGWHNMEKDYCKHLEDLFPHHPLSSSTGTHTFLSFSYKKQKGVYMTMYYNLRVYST

T2: 6-DMATSSa (Streptomyces ambofaciens, UniProt A3KIV6)
T2 construct: gene SAM23877_0730; 6-DMATSSa-His6 (C-terminal tag kept), plasmid pJW12, expressed in E. coli, Ni-NTA purified
T2 sequence (A3KIV6 1-375): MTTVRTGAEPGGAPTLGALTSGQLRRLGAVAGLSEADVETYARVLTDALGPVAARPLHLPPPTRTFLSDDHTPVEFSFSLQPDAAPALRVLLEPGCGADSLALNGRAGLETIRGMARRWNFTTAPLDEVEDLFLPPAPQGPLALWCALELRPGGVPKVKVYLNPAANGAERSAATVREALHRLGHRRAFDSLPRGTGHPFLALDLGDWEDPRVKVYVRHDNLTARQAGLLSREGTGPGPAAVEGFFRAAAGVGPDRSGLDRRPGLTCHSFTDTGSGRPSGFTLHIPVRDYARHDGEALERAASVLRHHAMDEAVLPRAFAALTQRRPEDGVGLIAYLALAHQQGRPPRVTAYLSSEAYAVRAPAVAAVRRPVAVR

B1: EchPT1 (Aspergillus ruber) (protein)
chain: MPSEVLTSYYDYPTHDQEAWWRDTGPLFGRFLKGAGYDVHTQYQYLVFFIKNILPSLGPYPARWRSTITPTGLPIEYSLNFQLNSRPLLRIGFEPLSRFSGTPQDPYNKIAAADLLNQLSKLQLHEFDTQLFNHFTNEFELSKSESESLQKQGGINGKSTVRSQTAFGFDLKGGRVAVKGYAFAGLKNRATGTPVGQLISNSIRNLEPQMHCWDSFSILNSYMEESDGWNEYSFVSWDCVDIERSRLKLYGVHNAVTWDKVKEMWTLGGRIENNATIKTGLELLQHMWSLLQINEGDRDYKGGFAADNGGKTLPIIWNYELNKGSPHPAPKFYFPVHGENDLQVSKSISEFFTHLGWQDHARQYPHLLRQIYPNQNISQTERLQAWISFAYNERTGPYLSVYYYSAERPPWGSDQVK
notes: His6-EchPT1 (N-terminal tag kept), plasmid pVW90, expressed in E. coli, Ni-NTA purified

Columns and labels:
[1] = target: T1, 7-DMATS; experiment: LCMS prenylation assay, conversion yield; type: biochemical; conditions: 1 mM substrate; 1 mM DMAPP; 5 mM CaCl2; 4 µg protein in 50 µL; pH 7.5; 37 °C; 16 h; C6- and C7-prenylation
[2] = target: T2, 6-DMATSSa; experiment: LCMS prenylation assay, conversion yield; type: biochemical; conditions: 1 mM substrate; 1 mM DMAPP; 5 mM CaCl2; 4 µg protein in 50 µL; pH 7.5; 37 °C; 16 h; C6-prenylation
[3] = substrate: CC(C)=CCc1cccc2[nH]cc(C[C@@H]3NC(=O)[C@@H]4CCCN4C3=O)c12; experiment: HPLC prenylation assay, Michaelis-Menten fit; type: biochemical, Aspergillus ruber; conditions: 1 mM DMAPP, pH 7.5, 37 °C, 30 min
Description: (§1) HPLC prenylation assay, Michaelis-Menten fit on EchPT1

[4] = substrate: CC(C)=CCc1ccc2[nH]cc(C[C@@H]3NC(=O)[C@@H]4CCCN4C3=O)c2c1; experiment: HPLC prenylation assay, Michaelis-Menten fit; type: biochemical, Aspergillus ruber; conditions: 1 mM DMAPP, pH 7.5, 37 °C, 35 min
Description: as §1

[5] = substrate: CC(C)=CCc1ccc2c(C[C@@H]3NC(=O)[C@@H]4CCCN4C3=O)c[nH]c2c1; experiment: HPLC prenylation assay, Michaelis-Menten fit; type: biochemical, Aspergillus ruber; conditions: 1 mM DMAPP, pH 7.5, 37 °C, 30 min, N1-prenylation
Description: as §1

[6] = substrate: CC(C)=CCOP(=O)(O)OP(=O)(O)O; experiment: HPLC prenylation assay, Michaelis-Menten fit; type: biochemical, Aspergillus ruber; conditions: 1 mM C4-prenylated cyclo-L-Trp-L-Pro (3), 5 mM CaCl2, pH 7.5, 37 °C, 30 min
Description: as §1

Molecule | conversion yield [1] [%] | conversion yield [2] [%] | Km [3] [µM] | kcat [3] [s⁻¹] | kcat/Km [3] [M⁻¹ s⁻¹] | Km [4] [µM] | kcat [4] [s⁻¹] | kcat/Km [4] [M⁻¹ s⁻¹] | Km [5] [µM] | kcat [5] [s⁻¹] | kcat/Km [5] [M⁻¹ s⁻¹] | Km [6] [µM] | kcat [6] [s⁻¹] | kcat/Km [6] [M⁻¹ s⁻¹]
O=C1N[C@@H](Cc2c[nH]c3ccccc23)C(=O)N2CCC[C@@H]12 [compound 1, cyclo-L-Trp-L-Pro] | 11.6 ± 1.4 | 29.9 ± 0.6 | – | – | – | – | – | – | – | – | – | – | – | –
B1 | – | – | 60 ± 10 | 0.21 ± 0.02 | 3500 | 80 ± 20 | 0.03 ± 0.004 | 375 | 50 ± 7 | 0.007 ± 0.0004 | 140 | 100 ± 10 | 0.25 ± 0.02 | 2500
